We go through two molecules from PMC11968277, “Sulfoglycolysis sustains Eubacterium rectale in low-fiber diets” (The Journal of Biological Chemistry, 2025).

Data set [1] concerns the target Bacillus megaterium SqvB (DUF4867 family member) (Bacillus megaterium). Nature of the data set: SEC-MALS; SEC-MALLS; 100 ul injected at 2.7 mg/mL; running buffer 50 mM Tris pH 7.5, 300 mM NaCl; room temperature (20 ± 2 °C).
Substrate in data set [2]: O=[N+]([O-])c1ccc(O[C@H]2O[C@H](CS(=O)(=O)O)[C@@H](O)[C@H](O)[C@H]2O)cc1
Nature of the data set: purified protein. It counts as biochemical, Agathobacter rectalis. Particulars: PBS (50 mM sodium phosphate, 150 mM NaCl), pH 6.5, 30 °C.

Regarding “Bacillus megaterium SqvB (DUF4867 family member) (natural protein)”, the stoichiometry N in data set [1] is 2.

B1: SftG (E. rectale SftG SQase) (Agathobacter rectalis ATCC 33656) (protein)
chain: MQIKVNDNEFQLFVGEKRILEHSKERPMIYVGVGQEDVDMYRGNFKITDYVTERFPLKLTDVIQTADTVRLCFESYIIAKIKCDENLCTIDFEQKDDRINRFWFRVAADKEEKCYGCGEQMSYFNLRGRNFPIWTSEPGVGRDKTTYVTWRSDVENKAGGDYYNTNYPQPTFVSTNKYYLHVDSTAYADFDFRNDSFHELQIWEVPKQIRIECADTYLKLLERITTYFGRQPKLPDWVYNGLIIGVQGGNERSFGLLDKTLDRNIKVAGIWCQDWCGKRVTSFGKRLQWDWKYHKEMYPDLPKKIKEINAKGIKFLGYVNPYLVNDGELYKEGKEKGYFATKADGSDYLVDFGEFYCGVVDLTNPEAFEWFKDIIKEYTLGIGIDGWMADFGEYLPTDDICLYSGKSPMIEHNHWPVLWAKCNYEAVKESGKLGDVVYFMRAGGAGSQKYCTLLWAGDQSVDFTIHDGLASVICGALSAGMMGCGLTHSDIGGYTSLFDNTRTKELFLRWAEMAMFTPFMRTHEGNRPDTNFQYYDDEDTMERLARLVDVYTMLAPYTKTLVEENADSGHPVQRPLFMHYESDAKAYDIQYEYLFGRDMLIAPVYEQDKHEWDVYLPQDEWVHLWTGEEYHGGEITVSAELGYTPAFYRKNSEFADIFEEIREKYGVK
notes: codon-optimised gene in pET29a(+), C-terminal His6 tag, expressed in E. coli NEB T7 Express
As to B1, in data set [2], the Km came to 478 ± 30 µM, the turnover number (kcat) worked out at 78.8 ± 3.9 s⁻¹ and the specificity constant (kcat/Km) turned out to be 165000 ± 18000 M⁻¹ s⁻¹.
